# According to patent US20040176568A1 (GENERAL HOSPITAL, published 2004):
# Read-outs that look alike come from different tables or passages of the source. No end group written: not given here.
# T1: human PTH-1 receptor (human, UniProt Q03431 27-593)
# T1 sequence (looked up): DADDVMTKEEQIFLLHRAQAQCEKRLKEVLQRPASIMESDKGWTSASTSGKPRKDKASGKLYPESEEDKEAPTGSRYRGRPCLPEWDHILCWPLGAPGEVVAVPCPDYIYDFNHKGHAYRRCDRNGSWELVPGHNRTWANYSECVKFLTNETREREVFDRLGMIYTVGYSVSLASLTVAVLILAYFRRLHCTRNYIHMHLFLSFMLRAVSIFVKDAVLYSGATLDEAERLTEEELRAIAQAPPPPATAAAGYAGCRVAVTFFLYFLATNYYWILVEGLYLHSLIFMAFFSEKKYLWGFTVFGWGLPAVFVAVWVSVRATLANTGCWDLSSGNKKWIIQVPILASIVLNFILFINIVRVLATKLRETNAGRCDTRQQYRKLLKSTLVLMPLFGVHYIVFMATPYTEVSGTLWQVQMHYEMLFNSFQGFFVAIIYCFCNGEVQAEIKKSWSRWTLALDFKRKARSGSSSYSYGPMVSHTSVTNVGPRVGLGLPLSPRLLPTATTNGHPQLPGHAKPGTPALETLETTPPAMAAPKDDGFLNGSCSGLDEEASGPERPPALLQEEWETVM
# T2: rat PTH-1 receptor (rat, UniProt P25961 27-591)
# T2 construct: whole, on cells; recombinant receptor on cells; also called rat PTH/PTHrP receptor
# T2 sequence (looked up): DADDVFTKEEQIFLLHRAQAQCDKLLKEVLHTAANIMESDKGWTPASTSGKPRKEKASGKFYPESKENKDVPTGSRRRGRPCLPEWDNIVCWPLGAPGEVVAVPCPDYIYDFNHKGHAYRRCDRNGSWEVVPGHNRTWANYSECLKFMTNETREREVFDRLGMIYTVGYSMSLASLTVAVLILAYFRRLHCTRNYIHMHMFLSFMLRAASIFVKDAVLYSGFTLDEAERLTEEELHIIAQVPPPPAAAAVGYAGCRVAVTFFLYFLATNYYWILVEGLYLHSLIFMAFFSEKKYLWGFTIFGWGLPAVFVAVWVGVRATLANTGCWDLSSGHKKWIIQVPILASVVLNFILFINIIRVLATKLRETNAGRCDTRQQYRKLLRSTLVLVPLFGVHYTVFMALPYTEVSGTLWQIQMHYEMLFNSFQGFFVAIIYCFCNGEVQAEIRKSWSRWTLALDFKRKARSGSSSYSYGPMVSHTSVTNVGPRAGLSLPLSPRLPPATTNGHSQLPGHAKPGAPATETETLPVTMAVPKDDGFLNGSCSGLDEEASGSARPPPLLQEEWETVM
# Key:
# human PTH-1 receptor [1] = target: T1, human PTH-1 receptor; test: cell-based or functional assay
# human PTH-1 receptor [2] = target: T1, human PTH-1 receptor; test: radioligand binding, HKRK B7 cells (human PTH-1 receptor)
# human PTH-1 receptor [3] = target: T1, human PTH-1 receptor; test: cell-based or functional assay; remark: listed apart in the source
# human PTH-1 receptor [4] = target: T1, human PTH-1 receptor; test: cell-based or functional assay; remark: listed apart in the source
# rat PTH-1 receptor [5] = target: T2, rat PTH-1 receptor; test: radioligand competition, EW5 cells (rat PTH-1 receptor)
# Source text: (§1) Cell layers were washed three times before solubilization for determination of cell-associated radioactivity.
# human PTH-1 receptor [6] = target: T1, human PTH-1 receptor; test: radioligand competition, HKRK B7 cells (human PTH-1 receptor)
# Source text: as §1
# rat PTH-1 receptor [7] = target: T2, rat PTH-1 receptor; test: radioligand competition, EW5 cells (rat) against HKRK B7 cells (human)
# Source text: as §1
# rat PTH-1 receptor [8] = target: T2, rat PTH-1 receptor; test: cell-based or functional assay
molecule,measurement,setting,value
desamino[Ala^1]hPTH-(1-34) (from UniProt P01270 32-65) (peptide),"PLC Activity (% Basal), 1000 nM peptide, transfected HEK-293 cells",human PTH-1 receptor [1],106 % Basal
[Tyr^0]hPTH-(1-34) (from UniProt P01270 32-65) (peptide),"PLC activity, percent of basal at 1000 nM peptide (percent of basal)",human PTH-1 receptor [1],105
desamino-hPTHrP(1-36) (from UniProt P12272 37-72) (peptide),"PLC activation, percent of basal at 1000 nM peptide, HKRK B7 cells (percent of basal)",human PTH-1 receptor [1],101
"^125I-[Nle^8,21, Tyr^34]rat PTH-(1-34) (from UniProt P04089 32-65) (peptide)","cell-associated radioactivity, basal (no competitor)",human PTH-1 receptor [2],25500 cpm/well
hPTHrP(1-36) (from UniProt P12272 37-72) (peptide),"PLC activation, percent of basal at 1000 nM peptide, HKRK B7 cells (percent of basal)",human PTH-1 receptor [1],178
desamino[Gly^1]hPTH-(1-34) (from UniProt P01270 32-65) (peptide),"PLC Activity (% Basal), 1000 nM peptide, transfected HEK-293 cells",human PTH-1 receptor [1],108 % Basal
VSEIQLMHNLGKHLNSMERVEWLRKKLQDVHNY-NH2 [hPTH-(2-34)],"PLC Activity (% Basal), 1000 nM peptide, transfected HEK-293 cells",human PTH-1 receptor [3],88 % Basal
"AVSEIQLMHNLGKHLNSMRRVEWLRKK-NH2 [[Ala^1,Arg^19]hPTH-(1-27)]",fold improvement of EC50 for AC activation over hPTH-(1-27),human PTH-1 receptor [4],10 fold
SVSEIQLMHNLGKHLNSMERVEWLRKK-NH2 [hPTH-(1-27)],"PLC Activity (% Basal), 1000 nM peptide, transfected HEK-293 cells",human PTH-1 receptor [3],95 % Basal
same,"EC50 of AC activation, HKRK B7 cells",human PTH-1 receptor [4],100 nM
same,fold loss of AC activity on removal of Leu^28,human PTH-1 receptor [4],~100 fold
GVSEIQLMHNLGKHLNSMERVEWLRKKL-NH2 (Analog of hPTH-(1-28)) [[Gly^1]hPTH-(1-28)],fold enhancement of binding affinity by the Gly^1 substitution (against hPTH-(1-28)),rat PTH-1 receptor [5],2 fold
same,fold impairment of binding by the Gly^1 substitution (against hPTH-(1-28)),human PTH-1 receptor [6],~3 fold
"GVSEIQLMHNLGKHLNSMRRVEWLRKKL-NH2 (Analog of hPTH-(1-28)) [[Gly^1,Arg^19]hPTH-(1-28)]",fold enhancement of binding affinity by the Gly^1 substitution (against [Arg^19]hPTH-(1-28)),rat PTH-1 receptor [5],2 fold
same,fold impairment of binding affinity relative to hPTH-(1-34),rat PTH-1 receptor [5],~6 fold
same,fold lower binding affinity than hPTH-(1-34),rat PTH-1 receptor [5],7 fold
same,fold greater binding affinity than for the human PTH-1 receptor,rat PTH-1 receptor [7],10 fold
same,fold impairment of binding by the Gly^1 substitution (against [Arg^19]hPTH-(1-28)),human PTH-1 receptor [6],~3 fold
same,fold improvement in binding affinity over [Gly^1]hPTH-(1-28),human PTH-1 receptor [6],5 fold
same,fold lower binding affinity than hPTH(1-34),human PTH-1 receptor [6],30 fold
same,fold reduction of binding relative to hPTH-(1-34),human PTH-1 receptor [6],~40 fold
same,"fold impairment of EC50 for AC relative to hPTH-(1-34), EW5 cells",rat PTH-1 receptor [8],~6 fold
same,selectivity for AC vs. PLC,rat PTH-1 receptor [8],> 10 fold
same,"fold reduction of PLC potency, HKRK B7 cells",human PTH-1 receptor [4],~100 fold
same,"selectivity for activation of AC (vs. PLC), relative to hPTH-(1-34)",human PTH-1 receptor [4],> 40 fold
"SVSEIQLMHNLGKHLNSMERVEWLRKKLQ-NH2 (peptide, UniProt P01270 32-60, looked up) [hPTH-(1-29)]","EC50 of PLC activation (IP3 formation), HKRK B7 cells",human PTH-1 receptor [4],1000 nM
SVSEIQLMHNLGKHLNSMERVEWLRKKLQDVHNY-NH2 [hPTH-(1-34)],"PLC Activity (% Basal), 1000 nM peptide, transfected HEK-293 cells",human PTH-1 receptor [3],854 % Basal
SVSEIQLMHNLGKHLNSMERVEWLRKKL-NH2 [hPTH-(1-28)],binding result,rat PTH-1 receptor [5],binds
same,"PLC Activity (% Basal), 1000 nM peptide, transfected HEK-293 cells",human PTH-1 receptor [3],305 % Basal
same,IC50,human PTH-1 receptor [6],1000 nM
same,"EC50 of AC activation, HKRK B7 cells",human PTH-1 receptor [4],1 nM
same,"EC50 of PLC activation, HKRK B7 cells",human PTH-1 receptor [4],6000 nM
same,fold loss of PLC potency against hPTH-(1-29),human PTH-1 receptor [4],~5 fold
"AVSEIQLMHNLGKHLNSMRRVEWLRKKL-NH2 [[Ala^1,Arg^19]hPTH-(1-28)]","EC50 for PLC activation, HKRK B7 cells",human PTH-1 receptor [4],200 nM
same,fold improvement of EC50 for PLC activation over [Ala^1]hPTH-(1-28),human PTH-1 receptor [4],5 fold
AVSEIQLMHNLGKHLNSMERVEWLRKKL-NH2 [[Ala^1]hPTH-(1-28)],"EC50 for PLC activation, HKRK B7 cells",human PTH-1 receptor [4],1000 nM
SVSEIQLMHNLGKHLNSMRRVEWLRKKL-NH2 (Analog of hPTH-(1-28)) [[Arg^19]hPTH-(1-28)],IC50,human PTH-1 receptor [6],100 nM
same,"EC50 of PLC activation, HKRK B7 cells",human PTH-1 receptor [4],300 nM
SVSEIQLMHNLGKHLNSMERVEWLRK-NH2 [hPTH-(1-26)],fold loss of AC potency against hPTH-(1-27),human PTH-1 receptor [4],10 fold
